Legend:
[1] = Chemical stability on storage at 37° C., RP-HPLC; assay type: physicochemical; settings: 4 weeks incubation at 37° C. in D-PBS
Procedure: To evaluate the chemical stability of vWF0055, the Nanobody® vWF0055 was stored at 37° C. After 1, 2 and 4 weeks a sample was taken and analyzed for chemical or proteolytic modifications via RP-HPLC (Zorbax 300SB-C3, 4.6×150 mm (5 μm); trifluoroacetic acid/acetonitrile).

[2] = cynomolgus monkey, in vivo
Procedure: The pharmacokinetic profile of the constructs was analyzed in male cynomolgus monkeys of approximately 3 to 4 years old and was compared to the reference (SEQ ID NO:165). The constructs and the control were each injected in three monkeys at a dose of 2 mg/kg via an intravenous bolus injection. Blood samples were taken at predose, 5 min, 20 min, 1 h, 2 h, 4 h, 8 h (test day 1) after administration and at test days 2, 3, 5, 7, 9, 12, 15, 18, 21, 24, 27, 30, 33. In order to obtain at least 1 mL plasma per animal per sampling time, a sufficient volume of whole blood was withdrawn per sampling time. Plasma was collected after whole blood centrifugation for 30 minutes at 2200 g at room temperature (RT). The plasma samples were stored at −80° C. until analysis.
For bioanalytical determination of constructs and control article in monkey plasma, plasma samples were tested for levels of constructs and the control using ELISA based PK assays. The detection of control and constructs in the ELISA assays is based on the binding of these Nanobodies with vWF and the assay set-ups are as such that total vWF-binding Nanobody is detected.
For the reference (SEQ ID NO:165) and the construct of SEQ ID NO:167, 96-well microtiter plates (Maxisorp, Nunc, Wiesbaden, Germany) were coated overnight at 4° C. with neutravidin (Pierce) in 10:10 buffer at 3 μg/ml. Wells were aspirated and blocked for 1 hour at RT with PBS/1% casein. After this blocking step, wells were washed with PBS/0.05% Tween20. A biotinylated bivalent Nanobody against the constructs was added to the neutravidin coated plate at 2 μg/ml in PBS/0.1% casein and incubated for 1 hour at RT. After the incubation step of this capture tool, wells were washed 3 times with PBS/0.05% Tween20.
Preparations of the standards, QC samples and dilutions of the test samples were performed in a non-coated (polypropylene) plate. For the standard curve and QC-samples, solutions at the required concentrations were prepared in PBS/0.1% casein and spiked into 100% monkey plasma. To prepare standards and QC samples, a 1/100 dilution of the pure monkey plasma dilutions was made in IgM-Reducing Agent (Immunochemistry Technologies, Bloomington, USA) supplemented with 2.5% pooled human plasma (referred to as sample diluent). For the test samples, dilution factors for the test samples were estimated, and ranged between 1/100 to 1/9000 for the reference of SEQ ID NO:165 tests and between 1/100 and 12000 for the construct of SEQ ID NO: 167. Samples were diluted 1/100 in sample diluent in a first step, and if needed, further dilution was done in sample diluent supplemented with 1% cynomolgus plasma.
Standards, QC samples and diluted test samples were transferred onto the coated plate and incubated for 1 hour at RT. Afterwards the plates were washed followed by a complexation step with purified vWF (ZLB Behring). vWF diluted to 2.5 μg/ml for the assay for the reference of SEQ ID NO:165 and to 3 μg/ml for the assay for the construct of SEQ ID NO: 167 in PBS/0.1% casein was incubated on the plates for 30 minutes at RT. Plates were washed and Nanobody/vWF complexes bound to the capture tool detected with Rabbit anti-human vWF Ab (Dako, Denmark), diluted 1/2000 in PBS/0.1% casein and incubated for 30 minutes at RT. After washing, a 1/15000 dilution in PBS/0.1% casein of Horse-Radish-Peroxidase labelled goat anti-rabbit Ab (Dako, Denmark) was added to the plate and incubated for 30 minutes at RT. The enzyme coupled to the Ab catalyzes a chemical reaction with the substrate sTMB (3,3′,5,5′-tetramethylbenzidine, SDT reagents, Brussels, Belgium), resulting in a colorimetric change. After stopping this reaction after 10 minutes using HC1 (1N), the intensity of the colour was measured using a spectrophotometer at 450 nm. […]

VWF = assay: Pharmacodynamic profile: ristocetin cofactor activity assay (% RICO) after i.v. administration; assay type: in vivo, Cynomolgus monkey
Procedure: For the constructs used in Example 14, pharmacodynamic characteristics upon compound administration were measured by means of a ristocetin cofactor activity assay (Biopool). The ristocetin cofactor activity is a functional assay for VWF, measuring the capacity of VWF to interact with the platelet receptor glycoprotein Ib using ristocetin as a modulator.
For pharmacodynamic data analysis, descriptive statistics (mean and SD) were calculated per dose group and per sampling time point using Microsoft Excel 2007. Response parameters and associated statistics for the overall time course were calculated by noncompartmental analysis of the response-time data using WinNonlin Pro 5.1 (Pharsight Corporation, USA; 2006). The non-compartmental analysis was based on a model for pharmacodynamic data (Model 220). The threshold value was set at 20% based on extensive historical PK/PD data on the vWF-0001 compound. Preclinical studies have shown that a complete inhibition of the pharmacodynamic marker are correlated with full antithrombotic efficacy. The following main pharmacodynamic parameters were determined: time below the threshold (Time below T), area under the threshold (AUC below T), time at which the % RICO first drops below the threshold (Tonset), and time at which the % RICO first returns back above the threshold (Toffset).

[3] = system: platelet adhesion to fibrillar collagen; assay: Perfusion experiments: platelet adhesion to collagen at arterial shear rate; assay type: cell-based, human
Procedure: The perfusion experiments were performed with a single-pass perfusion chamber under non-pulsatile flow conditions using a modified small perfusion chamber with a slit height of 0.1 mm and a slit width of 2 mm. […] Citrated human blood was preincubated at 37° C. for 5 min with or without addition of test compound, and then perfused through the chamber for 5 min at a wall shear rate of 1600 s^−1 using an infusion/withdrawal pump (pump 22, model 2400-004, Harvard Apparatus, Holliston, Mass.). After the perfusion run, the coverslips were rinsed in Hepes buffered saline (10 mM Hepes, 150 mM NaCl, pH 7.4) and platelets were fixed with 5% glutaraldehyde and stained with May-Grünwald and Giemsa. Platelet deposition of the coverslip was evaluated as platelet surface coverage of 10 randomly chosen pictures using light microscopy (Olympus BX61 microscope using Analysis Five digital imaging solutions analysis software).

cynoSA = cynoSA (Macaca fascicularis, UniProt A2V9Z4); assay: Biacore analysis of pH dependency of binding; parameters: species or system cynomolgus monkey
Chain of cynoSA (A2V9Z4 25-608): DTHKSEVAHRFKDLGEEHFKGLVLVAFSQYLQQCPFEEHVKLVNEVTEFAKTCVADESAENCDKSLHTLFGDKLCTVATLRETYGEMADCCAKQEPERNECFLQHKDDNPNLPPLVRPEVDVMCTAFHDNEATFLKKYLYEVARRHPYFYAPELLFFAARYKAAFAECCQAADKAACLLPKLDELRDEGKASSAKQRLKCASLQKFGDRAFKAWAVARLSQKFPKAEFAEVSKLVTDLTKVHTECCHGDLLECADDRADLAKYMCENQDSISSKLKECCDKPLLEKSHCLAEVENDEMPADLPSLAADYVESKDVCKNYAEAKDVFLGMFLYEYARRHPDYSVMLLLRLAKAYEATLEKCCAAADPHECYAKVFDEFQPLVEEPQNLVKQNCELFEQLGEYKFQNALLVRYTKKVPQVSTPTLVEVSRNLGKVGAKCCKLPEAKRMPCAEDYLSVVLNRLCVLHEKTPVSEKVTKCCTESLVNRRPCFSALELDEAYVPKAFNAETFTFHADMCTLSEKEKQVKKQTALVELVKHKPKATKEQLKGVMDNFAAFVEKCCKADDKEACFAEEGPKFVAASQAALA
Procedure: (§1) The pH dependent binding of vWF0055 on HSA and cynoSA was investigated by surface plasmon resonance using a Biacore 3000 instrument by assessing the affinity at three different pH's. In brief, HSA and cynoSA were amine-coupled to a separate CM5 sensor chip at a density of respectively 1800RU and 1900RU. Diluted samples, ranging in concentration between 25 nM to 1 μM vW0055 were prepared in three buffers. The three buffers used contained 50 mM phosphate, 150 mM NaCl and 0.005% surfactant P and were adjusted to either pH5, pH7 or pH8. Samples were injected at a flow-rate of 45 μL/min, association and dissociation were monitored during 120 sec and 300 sec. Binding curves were subsequently used to calculate the KD, association- and dissociation-rate constants with the BiaEvaluation software.

HSA = HSA (Homo sapiens, UniProt P02768); assay: Biacore analysis of pH dependency of binding
Procedure: as §1

[4] = threshold 20% RICO, i.v. bolus 2 mg/kg, male Cynomolgus monkey, mean n = 3

B1: 12A2_sv1-AAA-12A2_sv1-9GS-59C2 (protein)
chain: DVQLVESGGGLVQPGGSLRLSCAASGRTFSYNPMGWFRQAPGKGRELVAAISRTGGSTYYPESVEGRFTISRDNAKRTVYLQMNSLRAEDTAVYYCAAAGVRAEQGRVRTLPSEYTFWGQGTQVTVSSAAAEVQLVESGGGLVQPGGSLRLSCAASGRTFSYNPMGWFRQAPGKGRELVAAISRTGGSTYYPESVEGRFTISRDNAKRTVYLQMNSLRAEDTAVYYCAAAGVRAEQGRVRTLPSEYTFWGQGTQVTVSSGGGGSGGGSRDWDFDVFGGGTPVGG
chemical modifications or proteolytic degradation [1]: neither chemical modifications nor proteolytic degradation occurred
Vdss lower relative to vWF0001 [2]: 11 fold
dominant half-life (t½ dominant) increase relative to vWF0001 [2]: 85 fold
mean CL decrease compared to the control [2]: 26 fold
AUCinf ([2]; iv, 2 mg/kg): 1590 µg·h/mL
C0 ([2]; iv, 2 mg/kg): 46500 ng/mL
Tonset values (VWF; estimated, i.v. application): ~5 min
mean AUC under the threshold increase relative to vWF0001 (VWF; i.v. bolus): 118 fold
time below the threshold increase relative to vWF0001 (VWF; i.v. bolus): 105 fold
AUC below T (VWF; [4]): 781 % RICO * h
Time below T (VWF; [4]): 127 h
Tonset (VWF; time % RICO first drops below threshold, i.v. bolus 2 mg/kg): 0.074 h
Toffset (VWF; time % RICO first returns above threshold, i.v. bolus 2 mg/kg): 127 h
Effective concentration compared to VWF0001 ([3]; FIG. 12): similar
inhibition of platelet adhesion to fibrillar collagen at arterial shear rate ([3]; citrated human blood, wall shear rate 1600 s^−1, FIG. 12): dose-dependently and completely inhibit
decrease of affinity at pH5 (cynoSA; pH5): about 10 fold
pH at which the highest affinity was observed (cynoSA; pH5, pH7 or pH8 tested): 7
decrease of affinity at pH5 (HSA; pH5): about 10 fold
pH at which the highest affinity was observed (HSA; pH5, pH7 or pH8 tested): 7
